Data on 62 variants can be found in the MegaScale stability set (Tsuboyama et al. 2023).

The chains are these.
B1: EHEE_rd2_0601 (parent)
chain: TYTYKLTDEEASRRAEDEWRNRGYDVRVRNNNGTWEVEVR

In the series the parent is B1. In words: folding stability dG (cDNA display proteolysis); higher = more stable. As to conditions: PBS, room temperature.
TYTYKLTDEEASRRAEDEWGNRGYDVRVRNNNGTWEVEVR: the “folding stability dG” value came to 0.028 kcal/mol.

TYTYKLTDEEASRRAEDEWYNRGYDVRVRNNNGTWEVEVR: the “folding stability dG” value amounted to 0.246 kcal/mol.

For the variant TYTYKLTDEEASRRAEDEWINRGYDVRVRNNNGTWEVEVR, the “folding stability dG” value worked out at 0.853 kcal/mol.

Take TYTYKLTDEEASRRAEDEWNNRGYDVRVRNNNGTWEVEVR: the “folding stability dG” value amounted to 0.373 kcal/mol.

As for TYTYKLTDEEASRRAEDEWHNRGYDVRVRNNNGTWEVEVR, the “folding stability dG” value was 0.444 kcal/mol.

For the variant TYTYKLTDEEASRRAEDEWENRGYDVRVRNNNGTWEVEVR, the “folding stability dG” value was -0.108 kcal/mol.

On to TYTYKLTDEEASRRAEDEWFNRGYDVRVRNNNGTWEVEVR, for which the “folding stability dG” value is 0.22 kcal/mol.

As to TYTYKLTDEEASRRAEDEWMNRGYDVRVRNNNGTWEVEVR, the “folding stability dG” value turned out to be 0.619 kcal/mol.

Take TYTYKLTDEEASRRAEDEWWNRGYDVRVRNNNGTWEVEVR: the “folding stability dG” value is -0.078 kcal/mol.

For the variant TYTYKLTDEEASRRAEDEWSNRGYDVRVRNNNGTWEVEVR, the “folding stability dG” value is 0.589 kcal/mol.

Take TYTYKLTDEEASRRAEDEWKNRGYDVRVRNNNGTWEVEVR: the “folding stability dG” value came out at 1.32 kcal/mol.

As for TYTYKLTDEEASRRAEDEWANRGYDVRVRNNNGTWEVEVR, the “folding stability dG” value came to 0.541 kcal/mol.

Regarding TYTYKLTDEEASRRAEDEWTNRGYDVRVRNNNGTWEVEVR, the “folding stability dG” value amounted to 0.945 kcal/mol.

For the variant TYTYKLTDEEASRRAEDEWQNRGYDVRVRNNNGTWEVEVR, the “folding stability dG” value came to 0.446 kcal/mol.

TYTYKLTDEEASRRAEDEWLNRGYDVRVRNNNGTWEVEVR: the “folding stability dG” value is 0.904 kcal/mol.

Consider TYTYKLTDEEASRRAEDEWVNRGYDVRVRNNNGTWEVEVR, for which the “folding stability dG” value came out at 0.659 kcal/mol.

In the case of TYTYKLTDEEASRRAEDEWRNRGYDTRVRNNNGTWEVEVR, the “folding stability dG” value is 0.439 kcal/mol.

As to TYTYKLTDEEASRRAEDEWRNRGYDARVRNNNGTWEVEVR, the “folding stability dG” value was determined as 0.393 kcal/mol.

For TYTYKLTDEEASRRAEDEWRNRGYDPRVRNNNGTWEVEVR, the “folding stability dG” value is -0.384 kcal/mol.

Regarding TYTYKLTDEEASRRAEDEWRNRGYDIRVRNNNGTWEVEVR, the “folding stability dG” value came out at 0.319 kcal/mol.

Consider TYTYKLTDEEASRRAEDEWRNRGYDFRVRNNNGTWEVEVR, for which the “folding stability dG” value was -0.688 kcal/mol.

TYTYKLTDEEASRRAEDEWRNNGYDVRVRNNNGTWEVEVR: the “folding stability dG” value worked out at 0.518 kcal/mol.

Consider TYTYKLTDEEASRRAEDEWRNHGYDVRVRNNNGTWEVEVR, for which the “folding stability dG” value was 0.666 kcal/mol.

For TYTYKLTDEEASRRAEDEWRNIGYDVRVRNNNGTWEVEVR, the “folding stability dG” value turned out to be 0.421 kcal/mol.

Regarding TYTYKLTDEEASRRAEDEWRNGGYDVRVRNNNGTWEVEVR, the “folding stability dG” value is 0.192 kcal/mol.

Turning to TYTYKLTDEEASRRAEDEWRNEGYDVRVRNNNGTWEVEVR, the “folding stability dG” value is 0.251 kcal/mol.

On to TYTYKLTDEEASRRAEDEWRNSGYDVRVRNNNGTWEVEVR, for which the “folding stability dG” value was found to be 0.439 kcal/mol.

Consider TYTYKLTDEEASRRAEDEWRNTGYDVRVRNNNGTWEVEVR, for which the “folding stability dG” value was -0.242 kcal/mol.

For the variant TYTYKLTDEEASRRAEDEWRNKGYDVRVRNNNGTWEVEVR, the “folding stability dG” value was 1.45 kcal/mol.

Regarding TYTYKLTDEEASRRAEDEWRNVGYDVRVRNNNGTWEVEVR, the “folding stability dG” value is -0.052 kcal/mol.

As to TYTYKLTDEEASRRAEDEWRNCGYDVRVRNNNGTWEVEVR, the “folding stability dG” value was 1.03 kcal/mol.

Regarding TYTYKLTDEEASRRAEDEWRNYGYDVRVRNNNGTWEVEVR, the “folding stability dG” value was 0.488 kcal/mol.

Take TYTYKLTDEEASRRAEDEWRNMGYDVRVRNNNGTWEVEVR: the “folding stability dG” value was 1.29 kcal/mol.

Turning to TYTYKLTDEEASRRAEDEWRNDGYDVRVRNNNGTWEVEVR, the “folding stability dG” value was -0.181 kcal/mol.

For the variant TYTYKLTDEEASRRAEDEWRNLGYDVRVRNNNGTWEVEVR, the “folding stability dG” value stood at 1.46 kcal/mol.

Take TYTYKLTDEEASRRAEDEWRNFGYDVRVRNNNGTWEVEVR: the “folding stability dG” value is 0.44 kcal/mol.

For TYTYKLTDEEASRRAEDEWRNWGYDVRVRNNNGTWEVEVR, the “folding stability dG” value was 0.762 kcal/mol.

Regarding TYTYKLTDEEASRRAEDEWRNAGYDVRVRNNNGTWEVEVR, the “folding stability dG” value was determined as 1.22 kcal/mol.

As for TYTYKLTDEEASRRAEDEWRNQGYDVRVRNNNGTWEVEVR, the “folding stability dG” value turned out to be 0.939 kcal/mol.

Consider TYTYKLTDEEASRRAEDENRNRGYDVRVRNNNGTWEVEVR, for which the “folding stability dG” value is -0.826 kcal/mol.

Take TYTYKLTDEEASRRAEDEMRNRGYDVRVRNNNGTWEVEVR: the “folding stability dG” value is 0.446 kcal/mol.

TYTYKLTDEEASRRAEDEFRNRGYDVRVRNNNGTWEVEVR: the “folding stability dG” value came out at 1.04 kcal/mol.

In the case of TYTYKLTDEEASRRAEDEYRNRGYDVRVRNNNGTWEVEVR, the “folding stability dG” value was determined as 0.78 kcal/mol.

Take TYTYKLTDEEASRRAEDEERNRGYDVRVRNNNGTWEVEVR: the “folding stability dG” value was -0.502 kcal/mol.

For the variant TYTYKLTDEEASRRAEDELRNRGYDVRVRNNNGTWEVEVR, the “folding stability dG” value amounted to 0.884 kcal/mol.

In the case of TYTYKLTDEEASRRAEDEHRNRGYDVRVRNNNGTWEVEVR, the “folding stability dG” value is -0.397 kcal/mol.

TYTYKLTDEEASRRAEDEIRNRGYDVRVRNNNGTWEVEVR: the “folding stability dG” value is -0.516 kcal/mol.

Consider TYTYKLTDEEASRRAEDEWRNRGIDVRVRNNNGTWEVEVR, for which the “folding stability dG” value is -0.012 kcal/mol.

Take TYTYKLTDEEASRRAEDEWRNRGADVRVRNNNGTWEVEVR: the “folding stability dG” value worked out at 0.049 kcal/mol.

Turning to TYTYKLTDEEASRRAEDEWRNRGTDVRVRNNNGTWEVEVR, the “folding stability dG” value is -0.625 kcal/mol.

On to TYTYKLTDEEASRRAEDEWRNRGCDVRVRNNNGTWEVEVR, for which the “folding stability dG” value came out at 1.21 kcal/mol.

As to TYTYKLTDEEASRRAEDEWRNRGLDVRVRNNNGTWEVEVR, the “folding stability dG” value came out at 0.28 kcal/mol.

Take TYTYKLTDEEASRRAEDEWRNRGRDVRVRNNNGTWEVEVR: the “folding stability dG” value was -0.49 kcal/mol.

For the variant TYTYKLTDEEASRRAEDEWRNRGVDVRVRNNNGTWEVEVR, the “folding stability dG” value amounted to 0.003 kcal/mol.

As to TYTYKLTDEEASRRAEDEWRNRGFDVRVRNNNGTWEVEVR, the “folding stability dG” value is 1.51 kcal/mol.

TYTYKLTDEEASRRAEDEWRNRGHDVRVRNNNGTWEVEVR: the “folding stability dG” value was 0.447 kcal/mol.

As to TYTYKLTDEEASRRAEDEWRNRGNDVRVRNNNGTWEVEVR, the “folding stability dG” value is -0.731 kcal/mol.

Turning to TYTYKLTDEEASRRAEDEWRNRGWDVRVRNNNGTWEVEVR, the “folding stability dG” value was 0.791 kcal/mol.

Regarding TYTYKLTDEEASRRAEDEWRNRGQDVRVRNNNGTWEVEVR, the “folding stability dG” value was -0.84 kcal/mol.

For the variant TYTYKLTDEEASRRAEDEWRNRGKDVRVRNNNGTWEVEVR, the “folding stability dG” value is -0.577 kcal/mol.

Take TYTYKLTDEEASRRAEDEWRNRGMDVRVRNNNGTWEVEVR: the “folding stability dG” value worked out at 0.281 kcal/mol.

For TYTYKLTDEEASRRAEDEWRNRKYDVRVRNNNGTWEVEVR, the “folding stability dG” value was -0.509 kcal/mol.
